Measured values from the Immune Epitope Database (IEDB).

Legend:
[1] = biological target: HLA-B*15:01; assay: IEDB peptide-MHC binding, purified MHC/competitive/radioactivity; filed as Kd, often an IC50 or EC50 that approximates it; ≥ and ≤ were set here for values at or beyond the usual limits of such assays
[2] = biological target: HLA-A*30:01; assay: as above
[3] = biological target: HLA-A*33:01; assay: as above
[4] = biological target: HLA-A*11:01; assay: as above; settings: source organism: Vaccinia virus WR
[5] = biological target: HLA-A*03:01; assay: as above; settings: source organism: Vaccinia virus WR
[6] = biological target: HLA-A*31:01; assay: as above
[7] = biological target: HLA-A*68:01; assay: as above
[8] = biological target: HLA-A*30:02; assay: as above
[9] = biological target: HLA-A*26:01; assay: as above
[10] = biological target: HLA-A*32:01; assay: as above
[11] = biological target: HLA-A*01:01; assay: as above
[12] = biological target: HLA-A*29:02; assay: as above
[13] = biological target: HLA-B*08:01; assay: as above
[14] = biological target: HLA-A*11:01; assay: IEDB peptide-MHC binding, purified MHC/direct/fluorescence; filed as Kd, often an IC50 or EC50 that approximates it; ≥ and ≤ were set here for values at or beyond the usual limits of such assays; settings: source organism: Homo sapiens
[15] = biological target: HLA-B*27:05; assay: as above; settings: source organism: Homo sapiens
[16] = biological target: HLA-A*02:01; assay: IEDB peptide-MHC binding, purified MHC/competitive/fluorescence; ≥ and ≤ were set here for values at or beyond the usual limits of such assays
[17] = biological target: HLA-A*24:02; assay: as above
[18] = biological target: HLA-B*40:01; assay: IEDB peptide-MHC binding, purified MHC/competitive/radioactivity; filed as Kd, often an IC50 or EC50 that approximates it; ≥ and ≤ were set here for values at or beyond the usual limits of such assays
[19] = biological target: HLA-B*44:02; assay: as above
[20] = biological target: HLA-B*44:03; assay: as above
[21] = biological target: HLA-A*02:01; assay: as above
[22] = biological target: HLA-A*03:01; assay: IEDB peptide-MHC binding, purified MHC/direct/fluorescence; filed as Kd, often an IC50 or EC50 that approximates it; ≥ and ≤ were set here for values at or beyond the usual limits of such assays
[23] = biological target: HLA-A*31:01; assay: as above
[24] = biological target: HLA-A*02:03; assay: IEDB peptide-MHC binding, purified MHC/competitive/radioactivity; filed as Kd, often an IC50 or EC50 that approximates it; ≥ and ≤ were set here for values at or beyond the usual limits of such assays
[25] = biological target: HLA-A*02:02; assay: as above; settings: source organism: Homo sapiens
[26] = biological target: HLA-A*02:06; assay: as above
[27] = biological target: HLA-A*01:01; assay: IEDB peptide-MHC binding, purified MHC/direct/fluorescence; filed as Kd, often an IC50 or EC50 that approximates it; ≥ and ≤ were set here for values at or beyond the usual limits of such assays; settings: source organism: Influenza A virus (A/Moscow/343/2003(H3N2))
[28] = source organism: Vaccinia virus WR
[29] = source organism: Dengue virus 4 Philippines/H241/1956
[30] = source organism: Mammarenavirus whitewaterense
[31] = source organism: Dengue virus 1 Brazil/97-11/1997
[32] = source organism: Mammarenavirus brazilense
[33] = source organism: Zaire ebolavirus
[34] = source organism: Dengue virus 2 Jamaica/1409/1983
[35] = source organism: Dengue virus 3 Martinique/1243/1999
[36] = source organism: Sudan ebolavirus
[37] = source organism: Dengue virus 1 Singapore/S275/1990
[38] = source organism: Vaccinia virus Copenhagen
[39] = source organism: Brucella melitensis
[40] = source organism: Dengue virus 4 Dominica/814669/1981
[41] = source organism: Mammarenavirus guanaritoense
[42] = source organism: SARS coronavirus Tor2
[43] = source organism: Rickettsia prowazekii
[44] = source organism: Vaccinia virus

Sequence: MVCPNINAF
- Kd [1, 28]: 22 nM

Sequence: KGKRALAPPV
- Kd [2, 29]: 2.27 nM

Sequence: MQKFTILEY
- Kd [3, 28]: ≥ 54500 nM
- Kd [4]: 39.8 nM
- Kd [5]: 470 nM
- Kd [6, 28]: 174 nM
- Kd [1, 28]: 10.1 nM
- Kd [7, 28]: 10800 nM

Sequence: YVNHTGFNV
- Kd [8, 30]: ≥ 76900 nM
- Kd [9, 30]: ≥ 53600 nM
- Kd [10, 30]: ≥ 77800 nM
- Kd [2, 30]: 1240 nM
- Kd [11, 30]: 5880 nM
- Kd [12, 30]: 2470 nM

Sequence: HKQWFLDLPL
- Kd [13, 31]: 57 nM

Sequence: GRNSFEVRV
- Kd [14]: ≥ 37700 nM
- Kd [15]: 1060 nM

Sequence: RILFRKPSL
- Kd [13, 28]: 32.2 nM

Sequence: KTLHSSVQSY
- Kd [8, 32]: 73.5 nM
- Kd [9, 32]: ≥ 36800 nM
- Kd [10, 32]: 527 nM
- Kd [2, 32]: 573 nM
- Kd [11, 32]: 4920 nM
- Kd [12, 32]: 6180 nM

Sequence: TGILQLPRD
- IC50 [16, 33]: ≥ 584000 nM
- IC50 [17, 33]: ≥ 506000 nM

Sequence: EQMAPHHKIL
- Kd [13, 29]: 59.7 nM

Sequence: SLRYSSKVF
- Kd [13, 28]: 928 nM

Sequence: ISRNKNIFV
- Kd [2, 28]: 7.28 nM

Sequence: CRSCTMPPLR
- Kd [2, 29]: 1530 nM

Sequence: TTKNGQPRK
- Kd [2, 28]: 0.233 nM

Sequence: VMVMVGATM
- Kd [1, 34]: 2.77 nM

Sequence: KEISSMLNIM
- Kd [18, 31]: 11.1 nM

Sequence: TFKKSGAIK
- Kd [2, 35]: 1200 nM

Sequence: ETWILRHPGF
- Kd [9, 34]: 1380 nM
- Kd [2, 34]: 12300 nM

Sequence: AEIPLQWIAS
- Kd [19, 35]: 200 nM
- Kd [18, 35]: 2240 nM

Sequence: KLHSGVDVFY
- Kd [8, 29]: 12.1 nM
- Kd [1, 29]: 2.76 nM
- Kd [11, 29]: 2870 nM

Sequence: LMALKLITQF
- Kd [1, 35]: 149 nM

Sequence: ATGKCNPNL
- IC50 [16, 36]: 12300 nM
- IC50 [17, 36]: ≥ 142000 nM

Sequence: EEEEQTLTI
- Kd [18, 34]: 103 nM

Sequence: CTREEFISK
- Kd [2, 29]: 21.1 nM

Sequence: YLKEEQDQQY
- Kd [1, 29]: 7.59 nM
- Kd [11, 29]: 15600 nM

Sequence: SLNLRIKIL
- Kd [13, 28]: 92 nM

Sequence: RIRQQLPLY
- Kd [3, 28]: ≥ 77700 nM
- Kd [2, 28]: 12.8 nM
- Kd [4]: 553 nM
- Kd [5]: 21.5 nM
- Kd [6, 28]: 773 nM
- Kd [7, 28]: 1190 nM

Sequence: SEFNTYKRSG
- Kd [20, 31]: 7050 nM
- Kd [19, 31]: 2170 nM
- Kd [18, 31]: 8760 nM

Sequence: SVYKHRLIV
- Kd [13, 28]: 108 nM

Sequence: MEEALRGLPI
- Kd [20, 34]: 1110 nM
- Kd [19, 34]: 29.3 nM
- Kd [18, 34]: 54.2 nM

Sequence: EDDRERLKV
- IC50 ([17]; source organism: Variola virus): 16.8 nM

Sequence: LVYKKMQSY
- Kd [1, 28]: 45.7 nM

Sequence: IWKVNPEID
- IC50 [17, 33]: 62100 nM

Sequence: IMAVGIVSIL
- Kd [13, 37]: 173 nM
- Kd [1, 37]: 8.03 nM

Sequence: KSKNINIEV
- Kd [2, 28]: 0.324 nM

Sequence: AQNALDNLVM
- Kd [1, 31]: 2.02 nM

Sequence: SIKMKLVSI
- Kd [13, 38]: 16.4 nM

Sequence: IHQGMHMVA
- IC50 [16, 33]: ≥ 84700 nM
- IC50 [17, 33]: ≥ 185000 nM

Sequence: HTKIDSMFL
- IC50 ([16]; source organism: Variola virus): 53700 nM
- Kd [2, 28]: 1.46 nM

Sequence: LMNKENAEM
- Kd [1, 28]: 7.7 nM

Sequence: CINGVCWTA
- Kd ([21]; source organism: hepatitis C virus genotype 1a): 2700 nM

Sequence: RLRGEARKTF
- Kd [1, 34]: 49.3 nM

Sequence: VLENFTILLV
- Kd ([21]; source organism: Homo sapiens): 527 nM

Sequence: AWQSVGHMM
- IC50 [16, 33]: ≥ 180000 nM
- IC50 [17, 33]: 34700 nM

Sequence: MVRLTTQGL
- Kd [2, 38]: 8.32 nM

Sequence: RVRIPDVAR
- Kd [22, 39]: 293 nM
- Kd [23, 39]: 23.4 nM

Sequence: YIKFIFLQM
- Kd [13, 28]: 8.58 nM
- Kd [1, 28]: 1350 nM

Sequence: PLGLVDLFV
- Kd ([21]; source organism: Lassa virus Josiah): 4170 nM

Sequence: CIVNKFMSF
- Kd [13, 28]: 60.4 nM

Sequence: YIRFRKNHI
- Kd [13, 28]: 1.44 nM
- Kd [1, 28]: 1010 nM

Sequence: STFNRFTIV
- Kd [13, 28]: 1730 nM

Sequence: SNKRHRPIG
- Kd [13, 28]: 33.5 nM

Sequence: AENTNSVTNI
- Kd [20, 40]: 372 nM
- Kd [19, 40]: 130 nM
- Kd [18, 40]: 461 nM

Sequence: VVKATYLLK
- Kd [2, 28]: 0.32 nM

Sequence: GLFGKGSLV
- Kd ([21]; source organism: dengue virus type 3): 2.9 nM
- Kd [24, 35]: 2.92 nM

Sequence: KAYHIIFFV
- Kd [2, 28]: 405 nM

Sequence: AEALKGMPI
- Kd [19, 31]: 1.01 nM
- Kd [18, 31]: 122 nM

Sequence: MVLPGAANK
- Kd [2, 28]: 58.9 nM

Sequence: ELLSYCVSLF
- Kd [8, 41]: 9750 nM
- Kd [9, 41]: 99.3 nM
- Kd [10, 41]: 2640 nM
- Kd [2, 41]: 1060 nM
- Kd [11, 41]: 261 nM
- Kd [12, 41]: 5800 nM

Sequence: MFGGVSWMVR
- Kd [3, 29]: 4.59 nM
- Kd [10, 29]: 952 nM
- Kd [6, 29]: 17.2 nM

Sequence: IYRGTTFAE
- IC50 [17, 33]: 9880 nM

Sequence: ALRANSAVK
- Kd [3, 42]: ≥ 77700 nM
- Kd [7, 42]: ≥ 26400 nM
- Kd ([23]; source organism: SARS-CoV1): 479 nM

Sequence: ASNIVLDQI
- IC50 [16, 28]: ≥ 86200 nM
- IC50 [17, 28]: 5240 nM

Sequence: KWLKIITPK
- Kd [22, 43]: ≥ 20000 nM
- Kd [23, 43]: 217 nM

Sequence: RVRISLIYL
- Kd [2, 28]: 0.0915 nM

Sequence: DRDINPIVK
- IC50 [17, 44]: 33500 nM

Sequence: EPIKHKYPL
- Kd [13, 28]: 1.27 nM

Sequence: RPTIEKDVDL
- Kd [13, 35]: 846 nM

Sequence: HTAEAGGRAY
- Kd [8, 34]: 25.1 nM
- Kd [9, 34]: 24.6 nM
- Kd [1, 34]: 115 nM
- Kd [11, 34]: ≥ 70400 nM

Sequence: LRVLSIPPTA
- Kd [2, 29]: 3500 nM

Sequence: ATIQRFSSL
- Kd [13, 28]: 3.34 nM

Sequence: ETRTETWMSS
- Kd [9, 34]: 693 nM
- Kd [10, 34]: 12800 nM

Sequence: DLEDLKDQI
- Kd [25]: 16400 nM
- Kd ([21]; source organism: Homo sapiens): ≥ 24300 nM
- Kd ([26]; source organism: Homo sapiens): ≥ 78700 nM
- Kd ([24]; source organism: Homo sapiens): 13600 nM

Sequence: LKKNKAIKIL
- Kd [13, 29]: 11000 nM

Sequence: LDRPHTPQF
- IC50 [17, 36]: 23800 nM

Sequence: SLREISNIV
- Kd [13, 28]: 10.2 nM

Sequence: NIMPLFPTF
- Kd [13, 28]: 48.1 nM

Sequence: ESRFTPQFL
- IC50 [17, 33]: 22400 nM

Sequence: MGLDKGWPIS
- Kd [10, 31]: 10100 nM

Sequence: ALHQVFGAIY
- Kd [8, 34]: 71.8 nM
- Kd [1, 34]: 4.38 nM

Sequence: KSKAINVLR
- Kd [2, 34]: 103 nM
- Kd [6, 34]: 1.1 nM

Sequence: KEEYVDYMPV
- Kd [18, 29]: 68.7 nM

Sequence: ASKVFFGPI
- Kd [13, 28]: 12800 nM

Sequence: SNSNRLMSI
- Kd [13, 28]: 10.1 nM

Sequence: DTKIDLWSY
- Kd [27]: ≥ 20000 nM

Sequence: NLNVTTQSI
- IC50 [16, 44]: 44700 nM
- IC50 [17, 44]: 11100 nM

Sequence: GQITWRDMAH
- Kd [1, 35]: 153 nM

Sequence: QLAYVVIGIL
- Kd [13, 35]: ≥ 10000 nM

Sequence: RFTPQFLLQ
- IC50 [17, 33]: 4080 nM

Sequence: AQMWQLMYF
- Kd [26, 31]: 9.54 nM
- Kd [1, 31]: 1.58 nM
